Assay results taken from patent US11365402B2, “Internal protein tags” (Promega Corporation, priority 2014, dated 2022).

Test system: Anti-VEGF antibody
Test: Target antibody driven NANOLUC bioluminescence complementation (NLpep114-VEGFA targets, NLpoly11S-protein G, anti-VEGF antibody)
Format: cell-based
Conditions: HEK293T cells
Description: FIG. 6 depicts a schematic of how the assay components are used to screen for antibody binding to target protein by way of antibody driven NANOLUC bioluminescence complementation between NLpoly11S-fused protein G and internally tagged NLpep114 target protein. The Target, containing an internal pep114 tag, is expressed in mammalian cell culture with an IL6 signal peptide (SP). The SP directs the Target to the secretion pathway. The Target can be assayed in the media (+/−) cells. In the example, a purified preparation of the Large Bit (11S-protein G fusion protein) and Test Antibody are added directly to the mammalian cell culture. The protein G domain of the Large Bit binds to the Fc region of the Test Antibody between the Heavy Chain Constant Domains 2 and 3. If the Test Antibody binds to the Target, the Large and Small Bits can come together to form an active luminesent complex that is detected by furimazine.
NLpep114-target fusion construct DNA was diluted into carrier DNA (pGEM3Zf(−); Promega) at bug total DNA at a mass ratio of 1:10. DNA:FuGENE complexes were formed at a ratio of 1:3 (ug DNA/ul FuGENE), according to manufacturer's protocol (Promega). One part of the transfection complex was mixed with 20 parts (volume/volume) of HEK293T cells (ATCC) suspended at a density of 2×10^5 cells/ml in DMEM (Gibco)+10% FBS (Hyclone). Cells (50 ul/well) were dispensed into 96-well tissue culture plates and incubated in a humidified, 37° C./5% CO2 incubator for 18-24 hours.
HEK293T cells (ATCC) were transfected with three NLpep114-VEGFA DNAs as described above and incubated overnight. The cells were serum starved for 4 hours under the same conditions by replacing the media with an equal volume of (Gibco). NLpoly11S(15)pG in 1×PBS/0.1% BSA (Promega) was added (25 ul/well) to a final concentration of 0.5 ug/ml (12 nM). Anti-VEGF antibody (R&D Systems, #293) in 1×PBS/0.1% BSA (Promega) was added (25 ul/well) to a final concentration of 0-0.73 ug/ml (0-5.3 nM). After the addition of LCS Reagent (Promega, 100 ul/well, 10 μM final concentration), luciferase activity was measured using an Infinity F500 microtiter plate reader (Tecan).

B1: ATG-1915: Control Target with a terminal Small Bit: HALOTAG-VEGFA-165 with C-terminal NLpep114 tag (SEQ ID NO: 2577) (protein)
chain: MNSFSTSAFGPVAFSLGLLLVLPAAFPAPRAEIGTGFPFDPHYVEVLGERMHYVDVGPRDGTPVLFLHGNPTSSYVWRNIIPHVAPTHRCIAPDLIGMGKSDKPDLGYFFDDHVRFMDAFIEALGLEEVVLVIHDWGSALGFHWAKRNPERVKGIAFMEFIRPIPTWDEWPEFARETFQAFRTTDVGRKLIIDQNVFIEGTLPMGVVRPLTEVEMDHYREPFLNPVDREPLWRFPNELPIAGEPANIVALVEEYMDWLHQSPVPKLLFWGTPGVLIPPAEAARLAKSLPNCKAVDIGPGLNLLQEDNPDLIGSEIARWLSTLEISGEPTTEDLYFQSDNAPMAEGGGQNHHEVVKFMDVYQRSYCHPIETLVDIFQEYPDEIEYIFKPSCVPLMRCGGCCNDEGLECVPTEESNITMQIMRIKPHQGQHIGEMSFLQHNKCECRPKKDRARQENPCGPCSERRKHLFVQDPQTCKCSCKNTDSRCKARQLELNERTCRCDKPRRGSSGVTGYRLFEEIL
- overall luminescence signal, compared among constructs (anti-VEGF antibody): highest signal
- signal over background (increase in bioluminescence with antibody over assay components without antibody) (anti-VEGF antibody 0-0.73 ug/ml (0-5.3 nM), NLpoly11S-protein G 0.5 ug/ml (12 nM)): over 400 fold

B2: ATG-1917: Experimental Target with the Small Bit (NLpep114) between two large domains (SEQ ID NO: 2578) (protein)
chain: MNSFSTSAFGPVAFSLGLLLVLPAAFPAPRAEIGTGFPFDPHYVEVLGERMHYVDVGPRDGTPVLFLHGNPTSSYVWRNIIPHVAPTHRCIAPDLIGMGKSDKPDLGYFFDDHVRFMDAFIEALGLEEVVLVIHDWGSALGFHWAKRNPERVKGIAFMEFIRPIPTWDEWPEFARETFQAFRTTDVGRKLIIDQNVFIEGTLPMGVVRPLTEVEMDHYREPFLNPVDREPLWRFPNELPIAGEPANIVALVEEYMDWLHQSPVPKLLFWGTPGVLIPPAEAARLAKSLPNCKAVDIGPGLNLLQEDNPDLIGSEIARWLSTLEISGEPTTEDLYFQSDNVTGYRLFEEILGSSGAPMAEGGGQNHHEVVKFMDVYQRSYCHPIETLVDIFQEYPDEIEYIFKPSCVPLMRCGGCCNDEGLECVPTEESNITMQIMRIKPHQGQHIGEMSFLQHNKCECRPKKDRARQENPCGPCSERRKHLFVQDPQTCKCSCKNTDSRCKARQLELNERTCRCDKPRR
- signal reduction relative to ATG-1915 (C-terminal NLpep114 tag) (anti-VEGF antibody): 5 fold

B3: ATG-1946: Experimental Target with the Small Bit between one large and one small domain (C-terminal FLAG) (SEQ ID NO: 2579) (protein)
chain: MNSFSTSAFGPVAFSLGLLLVLPAAFPAPRAEIGTGFPFDPHYVEVLGERMHYVDVGPRDGTPVLFLHGNPTSSYVWRNIIPHVAPTHRCIAPDLIGMGKSDKPDLGYFFDDHVRFMDAFIEALGLEEVVLVIHDWGSALGFHWAKRNPERVKGIAFMEFIRPIPTWDEWPEFARETFQAFRTTDVGRKLIIDQNVFIEGTLPMGVVRPLTEVEMDHYREPFLNPVDREPLWRFPNELPIAGEPANIVALVEEYMDWLHQSPVPKLLFWGTPGVLIPPAEAARLAKSLPNCKAVDIGPGLNLLQEDNPDLIGSEIARWLSTLEISGEPTTEDLYFQSDNAPMAEGGGQNHHEVVKFMDVYQRSYCHPIETLVDIFQEYPDEIEYIFKPSCVPLMRCGGCCNDEGLECVPTEESNITMQIMRIKPHQGQHIGEMSFLQHNKCECRPKKDRARQENPCGPCSERRKHLFVQDPQTCKCSCKNTDSRCKARQLELNERTCRCDKPRRGSSGVTGYRLFEEILGSDYKDDDDK
- signal loss relative to ATG-1915 (C-terminal NLpep114 tag) (anti-VEGF antibody): 40%
